Test results reported in patent US20160017037A1 (GlaxoSmithKline, published 2016).
Residue numbers refer to the chain shown, from its start. Values belong to the binder of their own block, whether it stands above or below them.

Tests used:
[1] = target: T1, Human LAG-3 on cells (human LAG-3 expressing EL4 cells; activated human CD3+ T cells) (human, UniProt P18627 23-525); assay: flow cytometry (MFI), Alexa647-conjugated antibody titrated on activated human CD3+ T cells; direct binding curve, half-maximal value labelled IC50 in the table under the graph; unit taken from the concentration axis
T1 construct: whole, on cells; also called LAG-3 positive T cells
T1 sequence (looked up): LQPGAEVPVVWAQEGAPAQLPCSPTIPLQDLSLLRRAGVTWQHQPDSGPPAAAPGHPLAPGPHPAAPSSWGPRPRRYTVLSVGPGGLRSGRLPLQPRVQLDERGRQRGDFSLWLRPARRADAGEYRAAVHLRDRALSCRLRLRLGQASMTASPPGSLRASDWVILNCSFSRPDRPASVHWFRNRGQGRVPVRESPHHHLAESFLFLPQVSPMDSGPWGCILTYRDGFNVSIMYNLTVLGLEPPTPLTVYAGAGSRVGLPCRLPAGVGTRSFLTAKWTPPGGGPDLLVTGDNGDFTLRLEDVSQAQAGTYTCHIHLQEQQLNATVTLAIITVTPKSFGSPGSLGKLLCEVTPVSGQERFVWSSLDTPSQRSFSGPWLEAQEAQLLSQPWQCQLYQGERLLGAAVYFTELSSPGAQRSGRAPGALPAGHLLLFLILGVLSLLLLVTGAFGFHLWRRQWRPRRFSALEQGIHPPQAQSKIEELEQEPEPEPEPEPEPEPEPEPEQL
Description: CD3⁺ T cells were prepared from PBMCs by negative selection using Untouched Human T cell Dynal beads. CD3⁺ T cells were activated by incubation with immobilised anti-CD3 and anti-CD28 and soluble recombinant human IL-12 for 3 days at 37° C. Activated cells were incubated with Alexa 647-conjugated antibodies of varying concentrations up to 3 μg/ml for 30 minutes at room temperature. Cells were washed with FACS buffer (PBS+0.5% BSA).
EL4 cells and CD3⁺ T cells were analysed by FACS using a Beckman Coulter FC 500 flow cytometer. FACS raw data were analysed using CXP Analysis software (Beckman Coulter). The data was initially plotted on a forward-scatter versus side-scatter plot and the population of cells of interest were gated. This gated population was then plotted as a histogram displaying fluorescence intensity and the mean fluorescence intensity (MFI) calculated. MFI values were then plotted in GraphPad Prism 5 software to generate dose response curves.

[2] = target: T2, Recombinant cynomolgus macaque LAG-3 ECD-His6 (cynomolgus macaque, UniProt P18627 24-433 (human entry)); assay: SPR Biacore T100, antibody captured on Protein A, LAG-3 ECD-His6 analyte 0.0625-16 nM, 1:1 model, 37 C
T2 construct: In-house generated; also called cyno LAG-3
T2 chain: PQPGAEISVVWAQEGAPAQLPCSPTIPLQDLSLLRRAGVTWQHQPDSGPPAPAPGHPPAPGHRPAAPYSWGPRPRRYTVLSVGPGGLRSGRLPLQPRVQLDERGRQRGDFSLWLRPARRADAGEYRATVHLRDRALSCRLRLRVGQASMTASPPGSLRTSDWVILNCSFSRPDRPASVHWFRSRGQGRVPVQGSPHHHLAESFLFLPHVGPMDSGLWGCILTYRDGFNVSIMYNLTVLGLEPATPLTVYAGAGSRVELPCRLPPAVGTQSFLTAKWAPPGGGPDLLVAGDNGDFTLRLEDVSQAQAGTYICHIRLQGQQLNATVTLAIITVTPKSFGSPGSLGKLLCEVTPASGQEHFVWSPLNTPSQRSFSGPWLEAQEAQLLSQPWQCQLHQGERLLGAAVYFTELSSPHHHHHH
Description: (§1) The binding cross reactivity of anti-LAG-3 humanised antibodies for both cynomolgus macaque (cyno) and baboon recombinant LAG-3 ECD-His6 (SEQ ID NOs 52 and 53, respectively) was assessed using the Biacore™ T100 (GE Healthcare).
(§2) Protein A was immobilised on a CM5 chip by primary amine coupling. This surface was then used to capture the humanised antibodies. In-house generated recombinant cynomolgus macaque and baboon LAG-3 ECD-His6 were then passed over the captured antibodies and regeneration was carried out using 50 mM NaOH. LAG-3 ECD-His6 was passed over at 16, 4, 1, 0.25 and 0.0625 nM. The binding curves were double referenced with buffer injection (i.e. 0 nM) and the data was fitted to the T100 analysis software using the 1:1 model. The run was carried out at 37° C. using HBS-EP as the running buffer.

[3] = target: T3, Recombinant baboon LAG-3 ECD-His6 (baboon, UniProt P18627 24-433 (human entry)); assay: as above
T3 construct: In-house generated
T3 chain: T2 chain with R188Q, G193E, A243T, A288V, D293N, H357R
Description: as §1, §2

- IC50 [1]: 2.14 ng/mL
- Kd [2]: 21 pM
- Kd [3]: 19 pM
B1: IMP731 (antibody, human IgG1, kappa)
heavy: not shown
light: DIVMTQSPSSLAVSVGQKVTMSCKSSQSLLNGSNQKNYLAWYQQKPGQSPKLLVYFASTRDSGVPDRFIGSGSGTDFTLTISSVQAEDLADYFCLQHFGTPPTFGGGTKLEIKRTVAAPSVFIFPPSDEQLKSGTASVVCLLNNFYPREAKVQWKVDNALQSGNSQESVTEQDSKDSTYSLSSTLTLSKADYEKHKVYACEVTHQGLSSPVTKSFNRGEC
notes: Chimeric (murine variable domains, human IgG1/kappa constant regions); also called A9H12; chimeric antibody IMP731

- IC50 [1]: 3.07 ng/mL
- Kd [2]: 21 pM
- Kd [3]: 24 pM
B2: H5L7BW (antibody, human IgG1, kappa)
heavy: not shown
light: DIQMTQSPSSLSASVGDRVTITCKSSQSLLNPSNQKNYLAWYQQKPGKAPKLLVYFASTRDSGVPSRFSGSGSGTDFTLTISSLQPEDFATYYCLQHFGTPPTFGQGTKLEIKRTVAAPSVFIFPPSDEQLKSGTASVVCLLNNFYPREAKVQWKVDNALQSGNSQESVTEQDSKDSTYSLSSTLTLSKADYEKHKVYACEVTHQGLSSPVTKSFNRGEC
modifications: afucosylated: no fucose on the core carbohydrate structure attached to Asn297
notes: Same plasmids as H5L7, expressed in the BioWa POTELLIGENT (FUT8 knock-out CHO) cell line; also called afucosylated antibody H5L7BW; afucosylated H5L7

- IC50 [1]: 3.06 ng/mL
- Kd [2]: 17 pM
- Kd [3]: 22 pM
B3: H5L7 (antibody, human IgG1, kappa)
heavy: not shown
light: B2 light
notes: Humanised IgG1/kappa of A9H12 (IMP731); also called fucosylated H5L7; non-ADCC enhanced variant H5L7
